From patent US20230220381 come the findings set out here.

As a reminder, the Kd is the equilibrium constant for the complex coming apart.

The target in data set [1] is T1, Thrombin (Homo sapiens) (UniProt P00734+P00734). The experiment in a line: FP.
Data set [2] addresses T1, Thrombin (Homo sapiens). The experiment in a line: MST. To be noted: Phe at library positions 5 and 3, C12 at position 4, Nap at position 1 (3' end) (unnatural monomers); 2Bind, N=2, 100 nM aptamer, buffer without Triton X; unit given as nmol.

Consider “GGTTGGTGTGGTTGGNAP [Aptamer4 of Table 9 (Nap at position 1; Aptamer5 in FIG. 12)]”, for which, in the data set with Thrombin (Homo sapiens) [1] (Nap unnatural monomer at library position 1 (3' end), unit given as nmol, Aptamer4/5 naming swapped in FIG. 12, Table 9 sequence used), the Kd amounted to 0.024 µM.

For the sequence GGTPTGGPHECTGGTTGGG [Aptamer2], the Kd in the data set with Thrombin (Homo sapiens) [1] (Trp at library position 7, Phe at position 5, C12 at position 4 (unnatural monomers), fluorescence anisotropy, unit given as nmol) stood at 0.01 µM; with Thrombin (Homo sapiens) [1] (Trp at library position 7, Phe at position 5, C12 at position 4 (unnatural monomers), with 0.1 mg/mL salmon sperm DNA, N=3, unit given as nmol) it was 0.01 µM. Turning to “CGTCGAGGCCCGTGCTTACCCGTGACCTTCTTAGGAGGTTGGNGTGGNTGGTTTTTACACGTCACGCCTTTTTTTTT [TBA2F]”, in the data set with Thrombin (Homo sapiens) [1] (branched DNA-encoded construct with BU, aptamer branch GGTTGGC12GTGGAlkTGGTTTTT (C12 and Alk unnatural phosphodiester monomers), same buffer as TBA1F), the Kd worked out at 0.089 µM. As for GGTTGGPHEGTGGTTGGT [Aptamer1], in the data set with Thrombin (Homo sapiens) [1] (Phe unnatural monomer at library position 5, fluorescence anisotropy, unit given as nmol), the Kd stood at 0.026 µM. As to GGGTGGPHECTGGPHETGGNAP [Aptamer3], the Kd worked out at 0.005 µM with Thrombin (Homo sapiens) [1] (Phe at library positions 5 and 3, C12 at position 4, Nap at position 1 (3' end) (unnatural monomers), fluorescence anisotropy with 0.1 mg/mL sheared salmon sperm DNA, N=3, unit given as nmol); 0.006 µM with Thrombin (Homo sapiens) [1] (Phe at library positions 5 and 3, C12 at position 4, Nap at position 1 (3' end) (unnatural monomers), fluorescence anisotropy, thrombin binding buffer, unit given as nmol); 0.02 µM with Thrombin (Homo sapiens) [2].
